Assay results published in article PMC7390872.

Target: recombinant thioredoxin (rTRX) [thioredoxin: P0AA25]
Experiment: SPR; BIAcore T200; anti-His-tag antibody amine-coupled to a CM5 chip captures the His-tagged recombinant protein (0.1 mg/mL, about 200 RU); ligands (0.1 mg/mL) injected at 10 μL/min for 180 s; HBS-EP pH 7.5 (10 mM HEPES, 150 mM NaCl, 3 mM EDTA, 0.005% P20); relative reaction value, RUs >10 considered positive

recombinant thioredoxin (rTRX) [thioredoxin: P0AA25], sequence (P0AA25 whole entry): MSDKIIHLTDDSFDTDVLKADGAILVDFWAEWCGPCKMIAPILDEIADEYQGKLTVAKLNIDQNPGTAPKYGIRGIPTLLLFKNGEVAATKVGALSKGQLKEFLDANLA

response units (relative reaction value): < 10 RUs
Substance: laminin protein
